Patent US20230212319A1, “NOVEL ANTIGEN BINDING DOMAINS AND SYNTHETIC ANTIGEN RECEPTORS INCORPORATING THE SAME” (University of Southern California, priority 2020, published 2023)
Positions count from the first letter of the chain named.

B1: SEQ ID NO: 22247: Herceptin mimotag tagged SAR (protein)
chain: MALPVTALLLPLALLLHAARPACPQLGPYELWELSHGTGAVVRGAEFDIQMTQSPSSLSASVGDRVTITCKASDHINNWLAWYQQKPGQAPKLLIYGATTLETGVPSRFSGSGSGTDYTLTISSLQPEDFATYYCQQSWNTPWTFGQGTKLEIKRLEDLKNVFPPEVAVFEPSKAEIAHTQKATLVCLATGFYPDHVELSWWVNGKEVHSGVCTDPQPLKEQPALNDSRYCLSSRLRVSATFWQNPRNHFRCQVQFYGLSENDEWTQDRAKPVTQIVSAEAWGRADCGITSASYHQGVLSATILYEILLGKATLYAVLVSALVLMAMVKRKDSRGRAKRSGSGATNFSLLKQAGDVEENPGPTSATMDWIWRILFLVGAATGAHSGPQVQLQESGGGLAQAGGSLRLSCAASGRTFSMGWFRQAPGKEREFVAAITYSGGSPYYASSVRGRFTISRDNAKNTVYLQMNSLKPEDTAVYYCAANPTYGSDWNAENWGQGTQVTVSSGSGGGGSGGGGSGGGGSFEQVQLQQPGAELVKPGASVKMSCKASGYAFSSYWINWMKQKPGQGLEWIGQIYPGDGDTNYNGKFKGRATLTADTSSSTAYMQLSSLTSEDSAVYFCARSITTVVGCAMDYWGQGTSVTVSSTRIQNPDPAVYQLRDSKSSDKSVCLFTDFDSQTNVSQSKDSDVYITDKCVLDMRSMDFKSNSAVAWSNKSDFACANAFNNSIIPEDTFFPSSDVPCDVKLVEKSFETDTNLNFQNLSVIGFRILLLKVAGFNLLMTLRLWSSRAKRSGSGVKQTLNFDLLKLAGDVESNPGPSRGHMTEYKPTVRLATRDDVPRAVRTLAAAFADYPATRHTVDPDRHIERVTELQELFLTRVGLDIGKVWVADDGAAVAVWTTPESVEAGAVFAEIGPRMAELSGSRLAAQQQMEGLLAPHRPKEPAWFLATVGVSPDHQGKGLGSAVVLPGVEAAERAGVPAFLETSAPRNLPFYERLGFTVTADVEVPEGPRTWCMTRKPGA
modifications: Herceptin mimotag
B2: SEQ ID NO: 22248: Herceptin mimotag tagged SAR (protein)
chain: MALPVTALLLPLALLLHAARPDIQMTQSPSSLSASVGDRVTITCKASDHINNWLAWYQQKPGQAPKLLIYGATTLETGVPSRFSGSGSGTDYTLTISSLQPEDFATYYCQQSWNTPWTFGQGTKLEIKRLEDLKNVFPPEVAVFEPSEAEISHTQKATLVCLATGFYPDHVELSWWVNGKEVHSGVCTDPQPLKEQPALNDSRYCLSSRLRVSATFWQNPRNHFRCQVQFYGLSENDEWTQDRAKPVTQIVSAEAWGRADCGFTSESYQQGVLSATILYEILLGKATLYAVLVSALVLMAMVKRKDSRGRAKRSGSGATNFSLLKQAGDVEENPGPTSATMDWIWRILFLVGAATGAHSGPQLGPYELWELSHGSGPLGIAGIFEQVQLQQPGAELVKPGASVKMSCKASGYAFSSYWINWMKQKPGQGLEWIGQIYPGDGDTNYNGKFKGRATLTADTSSSTAYMQLSSLTSEDSAVYFCARSITTVVGCAMDYWGQGTSVTVSSTRIQNPDPAVYQLRDSKSSDKSVCLFTDFDSQTNVSQSKDSDVYITDKCVLDMRSMDFKSNSAVAWSNKSDFACANAFNNSIIPEDTFFPSPESSCDVKLVEKSFETDTNLNFQNLSVIGFRILLLKVAGFNLLMTLRLWSSRAKRSGSGVKQTLNFDLLKLAGDVESNPGPSRGHMTEYKPTVRLATRDDVPRAVRTLAAAFADYPATRHTVDPDRHIERVTELQELFLTRVGLDIGKVWVADDGAAVAVWTTPESVEAGAVFAEIGPRMAELSGSRLAAQQQMEGLLAPHRPKEPAWFLATVGVSPDHQGKGLGSAVVLPGVEAAERAGVPAFLETSAPRNLPFYERLGFTVTADVEVPEGPRTWCMTRKPGA
modifications: Herceptin mimotag
B3: 21853 (protein)
chain: MALPVTALLLPLALLLHAARPSYVLTQPPSVSVAPGQTARITCGGNNIGGKSVHWYQQPPGQAPVVVVYDDSDRPSGIPERFSGSNSGNTATLTISRVEAGDEAVYYCQVWDSSSDHVVFGGGTKLTVLLEDLKNVFPPEVAVFEPSEAEISHTQKATLVCLATGFYPDHVELSWWVNGKEVHSGVCTDPQPLKEQPALNDSRYCLSSRLRVSATFWQNPRNHFRCQVQFYGLSENDEWTQDRAKPVTQIVSAEAWGRADCGFTSESYQQGVLSATILYEILLGKATLYAVLVSALVLMAMVKRKDSRGRAKRSGSGATNFSLLKQAGDVEENPGPTSMDWIWRILFLVGAATGAHSFEQLQLQESGPGLVKPSETLSLTCTVSGGSISSSSYFWGWIRQPPGKGLEWIGSIYYSGITYYNPSLKSRVTISVDTSKNQFSLKLSSVTAADTAVYYCARHDGAVAGLFDYWGQGTLVTVSSATRIQNPDPAVYQLRDSKSSDKSVCLFTDFDSQTNVSQSKDSDVYITDKCVLDMRSMDFKSNSAVAWSNKSDFACANAFNNSIIPEDTFFPSPESSCDVKLVEKSFETDTNLNFQNLSVIGFRILLLKVAGFNLLMTLRLWSS
B4: 21852 (protein)
chain: B3 chain with I48L, G50S, S391G, S423T

Key:
[1] = system: JNG cells expressing the constructs
L363-Luc cells = assay: L363 xenograft in NSG mice; conditions: for disease control, L363 xenograft: 0.5 × 10^6 L363-Luc i.v., 3 days later 2 × 10^6 SAR-T i.v., compared to control T cells; for survival, L363 xenograft: mouse, in vivo, iv
THP-1 cells = assay: JNG NFAT-GFP induction on co-culture with THP-1
[2] = JNG NFAT-GFP background GFP induction (tonic signaling)

Molecule	cytotoxicity when exposed to antibody [1]	disease control, L363 xenograft (L363-Luc cells)	survival, L363 xenograft (L363-Luc cells)	GFP induction upon co-culture with THP-1 (THP-1 cells)	background GFP induction (tonic signaling) [2]
B1	showed cytotoxicity				
B2	showed cytotoxicity				
B3		superior disease control	prolongation of survival	no GFP induction	no background GFP induction
B4		superior disease control	prolongation of survival	no GFP induction	no background GFP induction
